# Assay results: patent US20110044985A1 (RINAT NEUROSCIENCE, published 2011)
# No end group written: not given here.
# T1: 28 KGAIIGLMVGGVVIAG (also: biotinylated (position not given here))
# T1 construct: It differs from m21 (Aβ peptide 28-42, not biotinylated, no added glycine); also called Biotinylated Aβ peptide with amino acids 28-42 and a glycine at the C-terminus; 28-42 15-mer
# T1 peptide: KGAIIGLMVGGVVIAG
# T2: Biotinylated Aβ peptide with amino acids 27-41 and a glycine at the C-terminus (also: biotinylated (position not given here))
# T2 peptide: NKGAIIGLMVGGVVIG
# T3: Biotinylated Aβ peptide with amino acids 24-33 and a glycine at the C-terminus (also: biotinylated (position not given here))
# T3 peptide: VGSNKGAIIGG
# T4: Biotinylated Aβ peptide with amino acids 26-40 and a glycine at the C-terminus (also: biotinylated (position not given here))
# T4 peptide: SNKGAIIGLMVGGVVG
# T5: Biotinylated Aβ peptide with amino acids 26-35 and a glycine at the C-terminus (also: biotinylated (position not given here))
# T5 peptide: SNKGAIIGLMG
# T6: Biotinylated Aβ peptide with amino acids 19-33 and a glycine at the C-terminus (also: biotinylated (position not given here))
# T6 peptide: FFAEDVGSNKGAIIGG
# Experiments:
# 28 KGAIIGLMVGGVVIAG = molecular target: T1, 28 KGAIIGLMVGGVVIAG; experiment: ELISA, biotinylated peptide on streptavidin-coated plate, goat anti-human kappa HRP
# Protocol: (§1) Various Aβ peptides (assigned SEQ ID NO:18-26, 31, and 27-29 from top to bottom sequences) were immobilized on ELISA plates. Antibodies were incubated for 1 hour with various immobilized peptides. Antibody 6G bound to immobilized Aβ peptides were measured using goat anti-human kappa HRP conjugated secondary antibody. […] “NB” refers to no binding detected.
# (§2) ELISA was used for measuring binding of antibody 6G and variants to biotinylated Aβ peptides. NUNC maxisorp plates were coated with 6 ug/ml of streptavidin (Pierce, 21122) in PBS pH 7.4 for more than 1 h at 4° C. Plates were blocked with 1% BSA in PBS buffer pH 7.4. After washing, biotinylated Aβ peptides in PBS pH 7.4 were incubated 1 hour at room temperature. Primary antibody (from cell supernatants, serum containing anti-Aβ antibody, or purified full antibody or Fabs at desired dilution) was incubated with the immobilized Aβ peptides for 1 h at room temperature. After washing, plates were incubated with secondary antibody, a HRP conjugated goat anti-human kappa chain antibody (MP Biomedicals, 55233) at 1:5000 dilution. After washing, bound secondary antibody was measured by adding TMB substrate (KPL, 50-76-02, 50-65-02). HRP reaction was stopped by adding 1M phosphoric acid and absorbance at 450 nm was measured.
# [1] = molecular target: T2, Biotinylated Aβ peptide with amino …; experiment: as above
# Protocol: as §1, §2
# [2] = molecular target: T3, Biotinylated Aβ peptide with amino …; experiment: as above
# Protocol: as §1, §2
# [3] = molecular target: T4, Biotinylated Aβ peptide with amino …; experiment: as above
# Protocol: as §1, §2
# [4] = molecular target: T5, Biotinylated Aβ peptide with amino …; experiment: as above
# Protocol: as §1, §2
# [5] = molecular target: T6, Biotinylated Aβ peptide with amino …; experiment: as above
# Protocol: as §1, §2
# Aβ1-42 = molecular target: T7, Aβ1-42; experiment: ELISA, nonbiotinylated peptide on plate
# T7 construct: also called 1-42 (WT); Aβ peptide 1-42
# T7 sequence (peptide, as listed by the source): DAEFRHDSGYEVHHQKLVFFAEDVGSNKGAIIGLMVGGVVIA
# Protocol: (§3) ELISA was used for measuring binding of antibody 6G and variants to nonbiotinylated Aβ peptides. NUNC maxisorp plates were coated with 2.5 ug/ml of Aβ peptides in PBS pH 7.4 for more than 1 hour at 4° C. Plates were blocked with 1% BSA in PBS buffer pH 7.4. Primary antibody (from cell supernatants, serum containing anti-Aβ antibody, or purified full antibody or Fabs at desired dilution) was incubated with the immobilized Aβ peptides for 1 h at room temperature. After washing, the plates were incubated with secondary antibody, a HRP conjugated goat anti-human kappa chain antibody (MP Biomedicals, 55233) at 1:5000 dilution. After washing, bound secondary antibody was measured by adding TMB substrate (KPL, 50-76-02, 50-65-02). The HRP reaction was stopped by adding 1M phosphoric acid and absorbance at 450 nm was measured.
# (§4) All amino acid substitutions of the variants shown in Table 3 are described relative to the sequence of 6G. Binding was determined by ELISA described above with nonbiotinylated Aβ₁₋₄₀ or Aβ₁₋₄₂ immobilized on the surface of an ELISA plate.
# Aβ1-40 = molecular target: T8, Aβ1-40; experiment: ELISA, nonbiotinylated peptide on plate
# T8 construct: also called 1-40 (WT); Aβ peptide 1-40
# T8 sequence (peptide, as listed by the source): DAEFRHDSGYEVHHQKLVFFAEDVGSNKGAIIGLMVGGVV
# Protocol: as §3, §4
binder,measurement,setting,value
"antibody 6G (antibody, V domains shown, Full antibody; human IgG2a constant region with A330P331 to S330S331, human kappa; also called 6G monoclonal antibody; 6G full antibody) VH: QVQLVQSGAEVKKPGASVKVSCKASGYTFTTYAIHWVRQAPGQGLEWMGFTSPYSGVSNYNQKFKGRVTMTRDTSTSTVYMELSSLRSEDTAVYYCARFDNYDRGYVRDYWGQGTLVTVSS VL: DIVMTQSPDSLAVSLGERATINCRASESVDNDRISFLNWYQQKPGQPPKLLIYAATKQGTGVPDRFSGSGSGTDFTLTISSLQAEDVAVYYCQQSKEFPWSFGGGTKVEIKR",binding result,28 KGAIIGLMVGGVVIAG,no binding (tested: 10 ug/ml)
same,binding result,[1],no binding (tested: 10 ug/ml)
same,binding result,[2],no binding (tested: 10 ug/ml)
same,binding result,[3],no binding (tested: 10 ug/ml)
same,binding result,[4],no binding (tested: 10 ug/ml)
same,binding result,[5],no binding (tested: 10 ug/ml)
"6G heavy chain mutant variant 7D (N101C) (antibody, V domains shown) VH: QVQLVQSGAEVKKPGASVKVSCKASGYTFTTYAIHWVRQAPGQGLEWMGFTSPYSGVSNYNQKFKGRVTMTRDTSTSTVYMELSSLRSEDTAVYYCARFDCYDRGYVRDYWGQGTLVTVS VL: DIVMTQSPDSLAVSLGERATINCRASESVDNDRISFLNWYQQKPGQPPKLLIYAATKQGTGVPDRFSGSGSGTDFTLTISSLQAEDVAVYYCQQSKEFPWSFGGGTKVEIKR",A450 ELISA,Aβ1-42,0.31 A450
"6G heavy chain mutant variant 8H (N101H) (antibody, V domains shown) VH: QVQLVQSGAEVKKPGASVKVSCKASGYTFTTYAIHWVRQAPGQGLEWMGFTSPYSGVSNYNQKFKGRVTMTRDTSTSTVYMELSSLRSEDTAVYYCARFDHYDRGYVRDYWGQGTLVTVS VL: DIVMTQSPDSLAVSLGERATINCRASESVDNDRISFLNWYQQKPGQPPKLLIYAATKQGTGVPDRFSGSGSGTDFTLTISSLQAEDVAVYYCQQSKEFPWSFGGGTKVEIKR",A450 ELISA,Aβ1-40,0.21 A450
"6G light chain mutant variant 5B (Q94G) (antibody, V domains shown) VH: QVQLVQSGAEVKKPGASVKVSCKASGYTFTTYAIHWVRQAPGQGLEWMGFTSPYSGVSNYNQKFKGRVTMTRDTSTSTVYMELSSLRSEDTAVYYCARFDNYDRGYVRDYWGQGTLVTVS VL: DIVMTQSPDSLAVSLGERATINCRASESVDNDRISFLNWYQQKPGQPPKLLIYAATKQGTGVPDRFSGSGSGTDFTLTISSLQAEDVAVYYCQGSKEFPWSFGGGTKVEIKR",A450 ELISA,Aβ1-42,0.14 A450
"6G light chain mutant variant 6E (E97P) (antibody, V domains shown) VH: QVQLVQSGAEVKKPGASVKVSCKASGYTFTTYAIHWVRQAPGQGLEWMGFTSPYSGVSNYNQKFKGRVTMTRDTSTSTVYMELSSLRSEDTAVYYCARFDNYDRGYVRDYWGQGTLVTVS VL: DIVMTQSPDSLAVSLGERATINCRASESVDNDRISFLNWYQQKPGQPPKLLIYAATKQGTGVPDRFSGSGSGTDFTLTISSLQAEDVAVYYCQQSKPFPWSFGGGTKVEIKR",A450 ELISA,Aβ1-42,0.2 A450
"6G light chain mutant variant 7E (Q94R) (antibody, V domains shown) VH: QVQLVQSGAEVKKPGASVKVSCKASGYTFTTYAIHWVRQAPGQGLEWMGFTSPYSGVSNYNQKFKGRVTMTRDTSTSTVYMELSSLRSEDTAVYYCARFDNYDRGYVRDYWGQGTLVTVS VL: DIVMTQSPDSLAVSLGERATINCRASESVDNDRISFLNWYQQKPGQPPKLLIYAATKQGTGVPDRFSGSGSGTDFTLTISSLQAEDVAVYYCQRSKEFPWSFGGGTKVEIKR",A450 ELISA,Aβ1-42,0.18 A450
"6G light chain mutant variant 7F (Q94K) (antibody, V domains shown) VH: QVQLVQSGAEVKKPGASVKVSCKASGYTFTTYAIHWVRQAPGQGLEWMGFTSPYSGVSNYNQKFKGRVTMTRDTSTSTVYMELSSLRSEDTAVYYCARFDNYDRGYVRDYWGQGTLVTVS VL: DIVMTQSPDSLAVSLGERATINCRASESVDNDRISFLNWYQQKPGQPPKLLIYAATKQGTGVPDRFSGSGSGTDFTLTISSLQAEDVAVYYCQKSKEFPWSFGGGTKVEIKR",A450 ELISA,Aβ1-42,0.19 A450
"6G light chain mutant variant 10E (S95L) (antibody, V domains shown) VH: QVQLVQSGAEVKKPGASVKVSCKASGYTFTTYAIHWVRQAPGQGLEWMGFTSPYSGVSNYNQKFKGRVTMTRDTSTSTVYMELSSLRSEDTAVYYCARFDNYDRGYVRDYWGQGTLVTVS VL: DIVMTQSPDSLAVSLGERATINCRASESVDNDRISFLNWYQQKPGQPPKLLIYAATKQGTGVPDRFSGSGSGTDFTLTISSLQAEDVAVYYCQQLKEFPWSFGGGTKVEIKR",A450 ELISA,Aβ1-42,0.12 A450
